Assay results from patent publication US8192734B2, “Compositions and methods for bone strengthening” (Cornell University, priority 2007, dated 2012).
Like-named read-outs stand apart in the source and are kept apart here.

Experiments:
[1] = system: pigs fed P-adequate corn-soybean meal basal diet; assay: Expt 1: metatarsal mineral concentrations (ICP); assay type: in vivo, pig
[2] = system: pigs fed P-adequate corn-soybean meal basal diet; assay: Expt 2: BMC, BMD and bone area by dual energy X-ray absorptiometry; assay type: in vivo, pig
Description: In Experiment 2, bone mineral content (BMC, g) and bone mineral density (BMD, g/cm^2) of 3rd and 4th metatarsals from the left foot and femur from the left leg of each pig were measured. After being thawed to room temperature, entire bones were placed on a rice bag (to remove background effects) and scanned by dual energy X-ray absorptiometry using the GE Lunar Prodigy instrument (GE Lunar, Prodigy, Madison Wis.) in the small animal scan mode. Values of BMC and BMD were predicted by analysis of scans using Prodigy software (version 10.10.038).

[3] = system: weanling pigs fed high P diet; assay: Examples 4-8: radiographic bone density and metacarpal histomorphometry; assay type: in vivo, pig; conditions: 8 wk
Description: As in Examples 1-3, the animal protocol was approved by Cornell Animal Care and Use Committee. An 8-week feeding trial was conducted at Cornell University Swine Research Farm. Thirty weanling pigs (Yorkshire×Hampshire×Landrace, body weight=8.6±0.5 kg) were allocated into three groups (n=10). […] were fed a corn-soy basal diet (BD)+0.25% inorganic phosphorus (iP, dicalcium phosphate). Group 2 were fed BD+0.35% iP. Group 3 were fed BD+0.35% iP+3,400 units of phytase/kg (Escherichia coli appA2, OptiPhos, JBS United, Inc., Sheridan, Ind.). The BD (Table 7) contained adequate levels of all nutrients except for P^(63), and 0.25% iP is the supplementation level recommended by NRC^(24) to meet the P needs of this age of pigs. […] Pigs were housed in an environmentally-controlled barn (20-25° C.; 12-light: 12-dark cycle), and given free access to feed and water.
After the skin and major muscles were removed, two left legs were subjected to X-ray radiography using a Faxitron machine (Model 43855A; Hewlett Packard, McMinnville, Oreg., USA). Bone radiographs of femur and metacarpals were quantified by the kodac software. The software counted the total number of pixels. Thereafter, the 3rd and 4th metacarpals and femurs were collected to measure length, weight, height, and width after removing the remaining muscle and connective tissue. After the X-ray analysis, the two left legs were used for bone mechanical and mineral testing. Bone mechanical properties were determined by a three-point bending test (ASAE Standard S459 1992) using an Instron 4500 Machine Universal Testing Instrument (Model 1122, Instron, Canton, Mass.) with Instron Series IX Automated Materials Testing System Software (version 4.05). During testing, force was applied to the center of the bone held by supports 2.0 cm apart for metacarpals and 3.3 cm apart for femurs. The crosshead speed was set at 50 mm/min and the sampling rate was at 10 points/sec. The extrinsic parameters (stiffness/slope, maximum load, energy to break, maximum displacement) were derived from the force-displacement curve. Bone breaking strength was calculated with the adjustment of bone weight, and the average strength of the 3rd and 4th metacarpal was used as the metacarpal strength for each pig.
Metacarpals (4th) from right foot of pigs (n=5 for each group) were quickly fixed by 10% formalin for histology, decalcified, embedded in paraffin sagittally serially sectioned through the midline (8 μm), and stained with Masson's trichrome as previously described^(74). Variation of bone matrix mineralization was detected by modified tetrachrome method^(75). Sulfated proteoglycans were detected by alcian blue staining^(76) and counter staining with Mayer's acid haematoxylin. PCI software—CIMAGING System (Model 1280, Compix Inc., Cranberry, Pa.)—was applied to measure bone surface, osteoid, bone volume, trabecular thickness, number, and separation, and proteoglycans surface. Trabecular size and separation distances were measured by the software measurement scale. Trabecular numbers were counted within a specified field. For proteoglycans measurement, the total area of trabecular bone was first captured to define the region of interest (ROI). Then, within the ROI the blue color area of proteoglycans was captured and its area measured to define the object area. For osteoid measurement, the first cortical bone surface was the object. The area fraction of the deep green in the periosteal area was expressed as: Area fraction (%)=Object area/Region of interest (ROI)×100.

[4] = Expt 2, plasma, phytase 2000 U/kg and/or Sr 50 mg/kg
Description: Pigs were penned in an environmentally controlled barn (20-25° C.; 12 h light: 12 h dark cycle), and were allowed free access to feed and water.
Blood samples of individual pigs were collected at initial (wk 0) and then weekly from the anterior vena cava into heparinized tubes after an overnight fast (8 h). The collected whole blood samples were chilled on ice and centrifuged at 3,000×g (GS-6KR centrifuge, Beckman Instruments Inc.) for 10 min at 4° C. to prepare plasma for assays of inorganic P concentrations and alkaline phosphatase activity.
The hydrolysis of p-nitrophenol phosphate to p-nitrophenol was used to measure plasma alkaline phosphatase activity^(27). The enzyme unit was defined as 1 μmol of p-nitrophenol released per minute at 30° C.

[5] = system: weanling pigs fed high P diet; assay: Examples 4-8: cortical and cancellous bone ash and mineral profile; assay type: in vivo, pig; conditions: 8 wk, 0.35% iP + Sr 50 mg/kg + phytase 3,400 U/kg
[6] = length x width by DXA, diets with phytase
[7] = main effect, phytase 2,000 U/kg or Sr 50 mg/kg
[8] = 0.35% iP + Sr 50 mg/kg + phytase 3,400 U/kg, P<0.001
[9] = phytase 3,400 U/kg into the 0.35% iP diet, P<0.001
[10] = phytase 3,400 U/kg into the 0.35% iP diet, P<0.05

B1: Phytase: Escherichia coli AppA2 phytase (OptiPhos, JBS United, Inc.), added to diets at feed mixing; AppA2 is SEQ ID NO: 2 (protein, listed as Escherichia coli)
chain: MKAILIPFLSLLIPLTPQSAFAQSEPELKLESVVIVSRHGVRAPTKATQLMQDVTPDAWPTWPVKLGWLTPRGGELIAYLGHYQRQRLVADGLLAKKGCPQPGQVAIIADVDERTRKTGEAFAAGLAPDCAITVHTQADTSSPDPLFNPLKTGVCQLDNANVTDAILSRAGGSIADFTGHRQTAFRELERVLNFSQLNLCLNREKQDESCSLTQALPSELKVSADNVSLTGAVSLASMLTEIFLLQQAQGMPEPGWGRITDSHQWNTLLSLHNAQFYLLQRTPEVARSRATPLLDLIMAALTPHPPQKQAYGVTLPTSVLFIAGHDTNLANLGGALELNWTLPGQPDNTPPGGELVFERWRRLSDNSQWIQVSLVFQTLQQMRDKTPLSLNTPPGEVKLTLAGCEERNAQGMCSLAGFTQIVNEARIPACSL
For B1, the “higher Sr concentration in metatarsals vs BD” value ([1]; BD + phytase 2,000 U/kg, 6 wk, P<0.05) was 7%, the “metatarsal Ca concentration” value ([1]; phytase 2000 U/kg, n=8) was 217.3 g/kg and the “metatarsal Cr concentration” value ([1]; phytase 2000 U/kg, n=8) was 6.4 mg/kg. The “metatarsal Fe concentration” value ([1]; phytase 2000 U/kg, n=8) was 15.7 mg/kg, the “metatarsal Mg concentration” value ([1]; phytase 2000 U/kg, n=8) was 3.6 g/kg and the “metatarsal Mn concentration” value ([1]; phytase 2000 U/kg, n=8) was 1.1 mg/kg. The “metatarsal Na concentration” value ([1]; phytase 2000 U/kg, n=8) was 6.2 g/kg, the “metatarsal P concentration” value ([1]; phytase 2000 U/kg, n=8) was 109.2 g/kg and the “metatarsal S concentration” value ([1]; phytase 2000 U/kg, n=8) was 1.2 g/kg. For the same molecule, the “metatarsal Sr concentration” value ([1]; phytase 2000 U/kg, n=8) was 62.8 mg/kg, the “metatarsal Zn concentration” value ([1]; phytase 2000 U/kg, n=8) was 176.1 mg/kg and the total bone area of femur [2, 6] was 45.8 ± 0.7 cm². For the same molecule, the total bone area of metatarsal [2, 6] was 9 ± 0.2 cm², the “increase of total bone area of femur” value ([2]; main effect, P<0.05) was 5% and the “increase of total bone area of metatarsal” value ([2]; main effect, P<0.05) was 7%. The “elevation of BMD of the two bones (metatarsal, femur)” value [2, 7] was 9 to 11%, the “enhancement of BMC in both bones (metatarsal, femur)” value [2, 7] was 14 to 15% and the “improvement of femur bone density (radiograph image pixel numbers) vs 0.35% iP” value [3, 8] was 28%. For the same molecule, the “improvement of metacarpus bone density (radiograph image pixel numbers) vs 0.35% iP” value [3, 8] was 20%, the “increase in metacarpal bone volume vs 0.35% iP” value [3, 8] was 38% and the “enhancement of osteoid thickness in the periosteal area” value [3, 9] was 60%. For the same molecule, the “increase of sulfated proteoglycans in cancellous bone” value [3, 9] was 18%, the “decrease in trabecular separation, metacarpal bone” value [3, 10] was 37% and the “increase in trabecular density, metacarpal bone” value [3, 10] was 42%. For the same molecule, the “increase in trabecular thickness, metacarpal bone” value [3, 10] was 51%, the Alkaline phosphatase activity ([4]; week 0 (initial)) was 202.1 U/L and the Alkaline phosphatase activity ([4]; week 5 (final)) was 149.9 U/L. For the same molecule, the “decrease of Ca concentration in cancellous bones, femur and metacarpus” value [5] was 11 to 19%, the “total ash concentration of cortical bone, femurs” value [5] was “not altered” and the “elevation of Sr concentration in cancellous bone, femur” value ([5]; P<0.002) was 127 fold. The “increase in Fe concentration of cancellous bone, metacarpus” value ([5]; P<0.05) was 22%.
